{
  "source": "patent US20250243261A1",
  "target": "SARS-CoV-2 BQ.1.1 Spike RBD (SARS-CoV-2 BQ.1.1 variant)",
  "test": "BLI, IgG",
  "data": [
    {"substance": "LY-1404 WT IgG (antibody)", "values": [
      {"measurement": "Kd", "result": 1700, "unit": "nM"}
    ]}
  ]
}
